Experimental data as given in the RNAGym collection of RNA variant scans (doi:10.7554/elife.80360).

B1: CPEB3 Ribozyme (parent)
chain: GGGGGCCACAGCAGAAGCGUUCACGUCGCGGCCCCUGUCAGAUUCUGGUGAAUCUGCGAAUUCUGCUGU

Variants of: B1
Test: self-cleavage, relative activity (ratio to wild type); higher = more cleavage; co-transcriptional

Going from GGGGGCCACAGCAGAAGCGUUCACGUCGCGGCCACUGUCAGAUUCUGGUGAAUCUGCGAAUUCUCCUGU [C34A G65C] to GGGGGCCACAGCAGAAGCGUUCACGUCGCGGCCGCUGUCAGAUUCUGGUGAAUCUGCGACUUCUGCUGU [C34G A60C], the self-cleavage falls from 0.485 to 0.331.

Compared with GGGGGCCACAGCAGAAGCGUUCACGUCGCGGCCGCUGUCAGAUUCUGGUGAAUCUGCGAGUUCUGCUGU [C34G A60G], GGGGGCCACAGCAGAAGCGUUCACGUCGCGGCCGCUGUCAGAUUCUGGUGAAUCUGCGAUUUCUGCUGU [C34G A60U] is lower in self-cleavage: 0.407 for the first, 0.39 for the second.

Compared with GGGGGCCACAGCAGAAGCGUUCACGUCGCGGCCACUGUCAGAUUCUGGUCAAUCUGCGAAUUCUGCUGU [C34A G50C], GGGGGCCACAGCAGAAGCGUUCACGUCGCGGCCACUGUCAGAUUCUGGUAAAUCUGCGAAUUCUGCUGU [C34A G50A] is higher in self-cleavage: 0.773 for the first, 0.822 for the second.

Compared with GGGGGCCACAGCAGAAGCGUUCACGUCGCGGCCGCUGUCAGAUUCUGGUGAAUCUGCCAAUUCUGCUGU [C34G G58C], GGGGGCCACAGCAGAAGCGUUCACGUCGCGGCCGCUGUCAGAUUCUGGUGAAUCUGCUAAUUCUGCUGU [C34G G58U] is higher in self-cleavage: 0.654 for the first, 0.772 for the second.

Going from GGGGGCCACAGCAGAAGCGUUCACGUCGCGGCCGCUGUCAGAUUCUGGUGAAUCUGCAAAUUCUGCUGU [C34G G58A] to GGGGGCCACAGCAGAAGCGUUCACGUCGCGGCCUCUGUCAGAUUCUGGUGAAUCUGCGUAUUCUGCUGU [C34U A59U], the self-cleavage rises from 0.463 to 0.778.

Going from GGGGGCCACAGCAGAAGCGUUCACGUCGCGGCCGCUGUGAGAUUCUGGUGAAUCUGCGAAUUCUGCUGU [C34G C39G] to GGGGGCCACAGCAGAAGCGUUCACGUCGCGGCCGCUGUUAGAUUCUGGUGAAUCUGCGAAUUCUGCUGU [C34G C39U], the self-cleavage falls from 0.455 to 0.439.

First: GGGGGCCACAGCAGAAGCGUUCACGUCGCGGCCGCUGUCAGGUUCUGGUGAAUCUGCGAAUUCUGCUGU [C34G A42G]
Second: GGGGGCCACAGCAGAAGCGUUCACGUCGCGGCCGCUGUCAGUUUCUGGUGAAUCUGCGAAUUCUGCUGU [C34G A42U]
The self-cleavage of the first is higher: 0.637 for the first, 0.544 for the second.

First: GGGGGCCACAGCAGAAGCGUUCACGUCGCGGCCUCUGUCAGAUUCUGGUGAAUCUGGGAAUUCUGCUGU [C34U C57G]
Second: GGGGGCCACAGCAGAAGCGUUCACGUCGCGGCCACUGCCAGAUUCUGGUGAAUCUGCGAAUUCUGCUGU [C34A U38C]
The self-cleavage of the first is lower: 0.261 for the first, 0.492 for the second.

First: GGGGGCCACAGCAGAAGCGUUCACGUCGCGGCCACUGACAGAUUCUGGUGAAUCUGCGAAUUCUGCUGU [C34A U38A]
Second: GGGGGCCACAGCAGAAGCGUUCACGUCGCGGCCACUGGCAGAUUCUGGUGAAUCUGCGAAUUCUGCUGU [C34A U38G]
The self-cleavage of the first is higher: 0.846 for the first, 0.232 for the second.

First: GGGGGCCACAGCAGAAGCGUUCACGUCGCGGCCACUGUCAGAUUCUGGUGAAUCUGCGAUUUCUGCUGU [C34A A60U]
Second: GGGGGCCACAGCAGAAGCGUUCACGUCGCGGCCUCUGUCAGAUUCUGGUGAAUCUGCGAAUUCUGGUGU [C34U C66G]
The self-cleavage of the first is lower: 0.292 for the first, 0.95 for the second.

Going from GGGGGCCACAGCAGAAGCGUUCACGUCGCGGCCGCUGUCAGAUUCUGGUGAAUCUGCGAAUUCUGCUAU [C34G G68A] to GGGGGCCACAGCAGAAGCGUUCACGUCGCGGCCGCUGUCAGAUUCUGGUGAAACUGCGAAUUCUGCUGU [C34G U53A], the self-cleavage falls from 0.931 to 0.569.

First: GGGGGCCACAGCAGAAGCGUUCACGUCGCGGCCACUCUCAGAUUCUGGUGAAUCUGCGAAUUCUGCUGU [C34A G37C]
Second: GGGGGCCACAGCAGAAGCGUUCACGUCGCGGCCGCUGUCAGAAUCUGGUGAAUCUGCGAAUUCUGCUGU [C34G U43A]
The self-cleavage of the first is lower: 0.262 for the first, 0.551 for the second.

Going from GGGGGCCACAGCAGAAGCGUUCACGUCGCGGCCGCUGUCAGAUUCUGGUAAAUCUGCGAAUUCUGCUGU [C34G G50A] to GGGGGCCACAGCAGAAGCGUUCACGUCGCGGCCACUGUCAGAUUCUGGUGAAUCUGCGAAUUCGGCUGU [C34A U64G], the self-cleavage falls from 0.707 to 0.629.

Going from GGGGGCCACAGCAGAAGCGUUCACGUCGCGGCCACUGUCAGAUUCUGGGGAAUCUGCGAAUUCUGCUGU [C34A U49G] to GGGGGCCACAGCAGAAGCGUUCACGUCGCGGCCACUGUCAGAUUCUGGUGAAUCUGCCAAUUCUGCUGU [C34A G58C], the self-cleavage falls from 0.865 to 0.556.

Going from GGGGGCCACAGCAGAAGCGUUCACGUCGCGGCCACUGUCAGAUUCUGGUGAAUCUGCUAAUUCUGCUGU [C34A G58U] to GGGGGCCACAGCAGAAGCGUUCACGUCGCGGCCGCUGUCAGAUUCUGGUGAAUCUCCGAAUUCUGCUGU [C34G G56C], the self-cleavage falls from 0.881 to 0.261.

First: GGGGGCCACAGCAGAAGCGUUCACGUCGCGGCCACUGUCAGAUUCUGGUGAAUCUACGAAUUCUGCUGU [C34A G56A]
Second: GGGGGCCACAGCAGAAGCGUUCACGUCGCGGCCGCUGUCAGAUUCUGGUGAAUCUGCGAAUUCUGAUGU [C34G C66A]
The self-cleavage of the first is higher: 0.562 for the first, 0.411 for the second.

Going from GGGGGCCACAGCAGAAGCGUUCACGUCGCGGCCGCUGUCAGAUUCUGGUGAAUCUGCGAAUUCUGUUGU [C34G C66U] to GGGGGCCACAGCAGAAGCGUUCACGUCGCGGCCAAUGUCAGAUUCUGGUGAAUCUGCGAAUUCUGCUGU [C34A C35A], the self-cleavage falls from 0.643 to 0.275.

Compared with GGGGGCCACAGCAGAAGCGUUCACGUCGCGGCCGCUCUCAGAUUCUGGUGAAUCUGCGAAUUCUGCUGU [C34G G37C], GGGGGCCACAGCAGAAGCGUUCACGUCGCGGCCACUGUCAGAUUCAGGUGAAUCUGCGAAUUCUGCUGU [C34A U46A] is higher in self-cleavage: 0.213 for the first, 0.848 for the second.

Compared with GGGGGCCACAGCAGAAGCGUUCACGUCGCGGCCACUGUCAGAUUCCGGUGAAUCUGCGAAUUCUGCUGU [C34A U46C], GGGGGCCACAGCAGAAGCGUUCACGUCGCGGCCGCAGUCAGAUUCUGGUGAAUCUGCGAAUUCUGCUGU [C34G U36A] is lower in self-cleavage: 0.829 for the first, 0.192 for the second.

For GGGGGCCACAGCAGAAGCGUUCACGUCGCGGCCGCUGUCAGAUUCUGGUGAAUCUGCGAAUUCUGCAGU [C34G U67A], the self-cleavage was 0.847.
